Legend:
[1] = system: aP probe: FGF21-based peptide with D-alanine at P2 (VaPSQG)
[2] = system: GP probe: fluorescence-quenched peptide of the region flanking the C-terminal human FGF21 cleavage site (VGPSQG)

PREP in mouse plasma, sequence (chain, as listed by the source): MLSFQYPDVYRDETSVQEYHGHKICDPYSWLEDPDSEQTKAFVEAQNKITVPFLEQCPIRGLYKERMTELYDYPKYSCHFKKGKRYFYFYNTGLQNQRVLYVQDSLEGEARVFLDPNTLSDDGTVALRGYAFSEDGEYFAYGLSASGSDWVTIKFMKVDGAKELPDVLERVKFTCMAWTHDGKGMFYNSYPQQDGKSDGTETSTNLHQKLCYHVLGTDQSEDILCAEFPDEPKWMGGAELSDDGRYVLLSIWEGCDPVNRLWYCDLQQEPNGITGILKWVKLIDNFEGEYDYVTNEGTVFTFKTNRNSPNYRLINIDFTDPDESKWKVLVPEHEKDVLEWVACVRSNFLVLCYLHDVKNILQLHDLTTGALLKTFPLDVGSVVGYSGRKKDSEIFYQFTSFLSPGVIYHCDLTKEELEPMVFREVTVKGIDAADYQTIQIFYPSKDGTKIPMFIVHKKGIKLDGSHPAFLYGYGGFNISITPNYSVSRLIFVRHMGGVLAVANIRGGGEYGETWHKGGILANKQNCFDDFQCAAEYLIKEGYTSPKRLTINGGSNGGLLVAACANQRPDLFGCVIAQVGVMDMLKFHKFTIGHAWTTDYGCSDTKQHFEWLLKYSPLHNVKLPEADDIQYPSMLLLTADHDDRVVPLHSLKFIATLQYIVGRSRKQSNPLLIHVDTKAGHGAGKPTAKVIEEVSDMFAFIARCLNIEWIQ

Substance: FAP in human serum
- cleavage of the aP probe in immunodepleted human serum [1]: signal is lost after FAP immunodepletion from human serum, but not in control IgG-immunodepleted serum

Substance: Human DPPII/DPP7 (3438-SE)
- cleavage of fluorescence-quenched peptide (FRET-quench assay), peptidase at 2.5 µg/ml [1]: did not exhibit an ability to cleave the aP probe

Substance: PREP in mouse plasma
- cleavage of the GP probe in mouse plasma, with cpd60 and KYP-2047 [2]: PREP has a smaller but significant contribution

From patent US20200055896
